In patent US20150147767A1:

Experiments:
[1] = target: FITC-conjugated BAG3 recombinant protein (human) (UniProt O95817); assay: flow cytometry, blocking of 14 nM FITC-rBAG3 binding to J774 A1 cells by 420 nM F(ab′)2; negative control
[2] = target: surface of J774 A1 macrophages (BAG3 binding partner not identified) (murine); assay: flow cytometry on J774 A1 cells, 14 nM FITC-rBAG3
[3] = target: surface of J774 A1 macrophages (BAG3 binding partner not identified) (murine); assay: flow cytometry on J774 A1 cells
[4] = target: surface of J774 A1 macrophages (BAG3 binding partner not identified) (murine); assay: flow cytometry on J774 A1 cells, negative control
[5] = target: surface of J774 A1 macrophages (BAG3 binding partner not identified) (murine); assay: flow cytometry competition on J774 A1 cells; 625 nM peptide, 14 nM FITC-rBAG3 as competitor

Sequence of UniProt O95817 (O95817 whole entry): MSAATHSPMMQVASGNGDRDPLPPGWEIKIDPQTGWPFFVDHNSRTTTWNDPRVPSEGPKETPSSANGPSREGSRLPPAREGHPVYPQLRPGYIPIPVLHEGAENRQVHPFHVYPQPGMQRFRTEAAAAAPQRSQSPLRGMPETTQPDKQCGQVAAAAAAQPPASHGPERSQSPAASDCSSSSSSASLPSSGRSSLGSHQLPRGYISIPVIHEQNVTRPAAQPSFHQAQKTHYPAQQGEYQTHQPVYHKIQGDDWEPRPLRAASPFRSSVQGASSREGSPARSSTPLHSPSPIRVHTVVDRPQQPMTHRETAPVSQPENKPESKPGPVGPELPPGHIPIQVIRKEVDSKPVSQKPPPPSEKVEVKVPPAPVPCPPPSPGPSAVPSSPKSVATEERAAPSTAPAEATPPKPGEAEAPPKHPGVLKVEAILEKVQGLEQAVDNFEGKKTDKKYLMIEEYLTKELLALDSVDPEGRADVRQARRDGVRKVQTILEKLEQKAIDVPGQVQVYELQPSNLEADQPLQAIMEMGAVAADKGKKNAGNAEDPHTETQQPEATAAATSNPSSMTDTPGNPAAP

% inhibition [5]	% of positive cells [5]	other results	Molecule
		% inhibition [1]: 0%; % of positive cells [1]: 12.3%	F(ab′)2 fragments from mouse IgG (antibody)
		% of positive cells [2]: 15.7%; % of positive cells, FITC-BSA subtracted [3]: 11.1%	FITC-conjugated BAG3 recombinant protein (from UniProt O95817 1-575)
		% inhibition [1]: 0%; % of positive cells [1]: 14.7%	F(ab′)2 fragments from rabbit IgG (antibody)
		% of positive cells [4]: 4.04%	FITC-conjugated BSA (albumin from bovine serum) (from UniProt P02769 25-607)
98.4%	0.18%		DRDPLPPGWEIKIDPQ [BAG3 peptide 1]
93.8%	0.68%		NPSSMTDTPGNPAAP [BAG3 peptide 4]
47.2%	5.86%		DKGKKNAGNAEDPHT [BAG3 peptide 3]
89.1%	1.21%		SSPKSVATEERAAPS [BAG3 peptide 2]
